Test results from patent US20020165128A1, “Compositions and methods for proteolytically inactivating infectious agents using lactoferrin and related molecules” (priority 1998, published 2002).
Residue numbers refer to the chain shown, from its start. Where two headings read alike, the source gives them in different places.

T1: H. influenzae Hap adhesin (Haemophilus influenzae, UniProt P45387, S243A)
T1 construct: expressed in transfected cells; host or cells: H. influenzae strain DB117 carrying pJS106
T1 sequence (P45387 26-1394 S243A): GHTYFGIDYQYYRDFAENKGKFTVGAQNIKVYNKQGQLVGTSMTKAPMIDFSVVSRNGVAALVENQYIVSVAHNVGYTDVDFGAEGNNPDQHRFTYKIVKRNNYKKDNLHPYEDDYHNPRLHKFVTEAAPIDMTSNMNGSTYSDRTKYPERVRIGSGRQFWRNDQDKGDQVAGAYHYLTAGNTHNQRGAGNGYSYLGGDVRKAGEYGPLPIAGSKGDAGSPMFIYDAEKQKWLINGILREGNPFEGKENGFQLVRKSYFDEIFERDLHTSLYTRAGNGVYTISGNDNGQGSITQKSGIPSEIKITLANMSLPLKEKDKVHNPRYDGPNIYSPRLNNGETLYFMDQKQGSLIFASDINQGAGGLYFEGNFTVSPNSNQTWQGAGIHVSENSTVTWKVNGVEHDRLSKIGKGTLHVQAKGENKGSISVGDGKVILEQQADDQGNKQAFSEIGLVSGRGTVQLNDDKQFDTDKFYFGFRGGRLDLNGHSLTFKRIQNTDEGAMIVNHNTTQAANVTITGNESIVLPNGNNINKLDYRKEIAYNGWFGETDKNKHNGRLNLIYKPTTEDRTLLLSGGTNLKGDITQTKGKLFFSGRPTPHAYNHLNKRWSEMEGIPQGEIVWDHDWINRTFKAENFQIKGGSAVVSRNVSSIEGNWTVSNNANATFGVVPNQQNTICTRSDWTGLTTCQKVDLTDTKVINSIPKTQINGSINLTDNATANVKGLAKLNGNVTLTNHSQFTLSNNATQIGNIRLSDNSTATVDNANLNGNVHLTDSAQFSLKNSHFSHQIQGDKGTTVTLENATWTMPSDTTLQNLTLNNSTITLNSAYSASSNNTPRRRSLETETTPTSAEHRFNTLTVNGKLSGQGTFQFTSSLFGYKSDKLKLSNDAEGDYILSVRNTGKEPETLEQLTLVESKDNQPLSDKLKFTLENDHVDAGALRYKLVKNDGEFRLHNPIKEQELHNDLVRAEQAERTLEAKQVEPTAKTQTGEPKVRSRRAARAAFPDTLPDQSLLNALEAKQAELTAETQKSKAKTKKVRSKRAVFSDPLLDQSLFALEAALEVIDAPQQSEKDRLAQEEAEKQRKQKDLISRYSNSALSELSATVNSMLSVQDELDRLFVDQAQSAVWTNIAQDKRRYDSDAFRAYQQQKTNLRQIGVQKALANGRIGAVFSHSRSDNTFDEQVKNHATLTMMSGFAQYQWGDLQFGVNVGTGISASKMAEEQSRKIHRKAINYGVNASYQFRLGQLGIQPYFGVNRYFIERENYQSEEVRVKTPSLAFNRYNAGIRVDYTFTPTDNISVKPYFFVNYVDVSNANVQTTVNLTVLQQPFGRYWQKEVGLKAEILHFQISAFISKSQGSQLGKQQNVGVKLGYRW

T2: H. influenzae Hap adhesin (Haemophilus influenzae, UniProt P45387)
T2 construct: expressed in transfected cells; host or cells: H. influenzae strain DB117 carrying pJS106
T2 sequence (P45387 26-1394): T1 sequence (P45387 26-1394 S243A) with A218S

B1: human milk lactoferrin: lactoferrin purified from human milk whey using anion exchange and molecular sieve chromatography (protein, UniProt P02788 20-710, looked up)
Lactotransferrin: GRRRSVQWCAVSQPEATKCFQWQRNMRKVRGPPVSCIKRDSPIQCIQAIAENRADAVTLDGGFIYEAGLAPYKLRPVAAEVYGTERQPRTHYYAVAVVKKGGSFQLNELQGLKSCHTGLRRTAGWNVPIGTLRPFLNWTGPPEPIEAAVARFFSASCVPGADKGQFPNLCRLCAGTGENKCAFSSQEPYFSYSGAFKCLRDGAGDVAFIRESTVFEDLSDEAERDEYELLCPDNTRKPVDKFKDCHLARVPSHAVVARSVNGKEDAIWNLLRQAQEKFGKDKSPKFQLFGSPSGQKDLLFKDSAIGFSRVPPRIDSGLYLGSGYFTAIQNLRKSEEEVAARRARVVWCAVGEQELRKCNQWSGLSEGSVTCSSASTTEDCIALVLKGEADAMSLDGGYVYTAGKCGLVPVLAENYKSQQSSDPDPNCVDRPVEGYLAVAVVRRSDTSLTWNSVKGKKSCHTAVDRTAGWNIPMGLLFNQTGSCKFDEYFSQSCAPGSDPRSNLCALCIGDEQGENKCVPNSNERYYGYTGAFRCLAENAGDVAFVKDVTVLQNTDGNNNEAWAKDLKLADFALLCLDGKRKPVTEARSCHLAMAPNHAVVSRMDKVERLKQVLLHQQAKFGRNGSDCPDKFCLFQSETKNLLFNDNTECLARLHGKTTYEKYLGPQYVAGITNLKKCSTSPLLEACEFLRK
B2: A. awamori recombinant lactoferrin: Aspergillus awamori recombinant human lactoferrin provided by Agennix Corporation (protein, UniProt P02788 20-710, looked up)
Lactotransferrin: B1 Lactotransferrin
modifications: expressed in Aspergillus awamori
B3: DMV Lactoferrin: commercially available bovine milk lactoferrin powder, DMV International Nutritionals, Lot 10022340 (protein, UniProt P24627 20-708, looked up)
Lactotransferrin: APRKNVRWCTISQPEWFKCRRWQWRMKKLGAPSITCVRRAFALECIRAIAEKKADAVTLDGGMVFEAGRDPYKLRPVAAEIYGTKESPQTHYYAVAVVKKGSNFQLDQLQGRKSCHTGLGRSAGWIIPMGILRPYLSWTESLEPLQGAVAKFFSASCVPCIDRQAYPNLCQLCKGEGENQCACSSREPYFGYSGAFKCLQDGAGDVAFVKETTVFENLPEKADRDQYELLCLNNSRAPVDAFKECHLAQVPSHAVVARSVDGKEDLIWKLLSKAQEKFGKNKSRSFQLFGSPPGQRDLLFKDSALGFLRIPSKVDSALYLGSRYLTTLKNLRETAEEVKARYTRVVWCAVGPEEQKKCQQWSQQSGQNVTCATASTTDDCIVLVLKGEADALNLDGGYIYTAGKCGLVPVLAENRKSSKHSSLDCVLRPTEGYLAVAVVKKANEGLTWNSLKDKKSCHTAVDRTAGWNIPMGLIVNQTGSCAFDEFFSQSCAPGADPKSRLCALCAGDDQGLDKCVPNSKEKYYGYTGAFRCLAEDVGDVAFVKNDTVWENTNGESTADWAKNLNREDFRLLCLDGTRKPVTEAQSCHLAVAPNHAVVSRSDRAAHVKQVLLHQQALFGKNGKNCPDKFCLFKSETKNLLFNDNTECLAKLGGRPTYEEYLGTEYVTAIANLKKCSTSPLLEACAFLTR

How the values were obtained:
[1] = tested on: H. influenzae Hap adhesin; format: cell-based, Haemophilus influenzae
[2] = molecular target: T1, H. influenzae Hap adhesin; format: cell-based
[3] = molecular target: T2, H. influenzae Hap adhesin; format: cell-based; settings: DB117 expressing wild-type Hap, 13 μM
[4] = molecular target: peptide fragments of IgA1 protease (Haemophilus influenzae, UniProt P44969); settings: 60 amino acid peptide ending at Arg1397; similar with the 80, 40 and 20 amino acid peptides
peptide fragments of IgA1 protease, sequence (P44969 1338-1397): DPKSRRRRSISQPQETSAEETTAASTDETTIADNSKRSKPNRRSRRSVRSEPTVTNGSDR
Description: To further define the site of cleavage of the IgA1 protease precursor protein, N-Iga was resolved on an SDS-PAGE gel, then stained with Coomassie blue and excised. The excised band was subjected to Lys-C digestion, and mass spectrometry was performed. […] Subsequently, these peptides were treated with lactoferrin and then examined the reaction mixtures by mass spectrometry.
Digests involving lactoferrin and synthetic peptides were extracted twice with 50 μL acetonitrile/2% TFA and then dried and resuspended in matrix solution for analysis by MALDI mass spectrometry.

[5] = molecular target: T3, 20 amino acid peptide Ala1007-Phe1026 of Hap (Haemophilus influenzae, UniProt P45387); assay: Lactoferrin cleavage of synthetic Hap peptide, mass spectrometry; format: biochemical
T3 construct: a 20 amino acid peptide corresponding to residues Ala1007-Phe1026 of Hap was synthesized; made in house; host or cells: chemical synthesis (f-moc), Protein Chemistry Laboratory at Tufts University
Excerpt: Next, a 20 amino acid peptide corresponding to residues Ala1007-Phe1026 of Hap was synthesized and subjected to cleavage by milk lactoferrin.

[6] = molecular target: H. influenzae IgA1 protease precursor (Haemophilus influenzae, UniProt P44969, S288V)
H. influenzae IgA1 protease precursor, sequence (P44969 26-1694 S288V): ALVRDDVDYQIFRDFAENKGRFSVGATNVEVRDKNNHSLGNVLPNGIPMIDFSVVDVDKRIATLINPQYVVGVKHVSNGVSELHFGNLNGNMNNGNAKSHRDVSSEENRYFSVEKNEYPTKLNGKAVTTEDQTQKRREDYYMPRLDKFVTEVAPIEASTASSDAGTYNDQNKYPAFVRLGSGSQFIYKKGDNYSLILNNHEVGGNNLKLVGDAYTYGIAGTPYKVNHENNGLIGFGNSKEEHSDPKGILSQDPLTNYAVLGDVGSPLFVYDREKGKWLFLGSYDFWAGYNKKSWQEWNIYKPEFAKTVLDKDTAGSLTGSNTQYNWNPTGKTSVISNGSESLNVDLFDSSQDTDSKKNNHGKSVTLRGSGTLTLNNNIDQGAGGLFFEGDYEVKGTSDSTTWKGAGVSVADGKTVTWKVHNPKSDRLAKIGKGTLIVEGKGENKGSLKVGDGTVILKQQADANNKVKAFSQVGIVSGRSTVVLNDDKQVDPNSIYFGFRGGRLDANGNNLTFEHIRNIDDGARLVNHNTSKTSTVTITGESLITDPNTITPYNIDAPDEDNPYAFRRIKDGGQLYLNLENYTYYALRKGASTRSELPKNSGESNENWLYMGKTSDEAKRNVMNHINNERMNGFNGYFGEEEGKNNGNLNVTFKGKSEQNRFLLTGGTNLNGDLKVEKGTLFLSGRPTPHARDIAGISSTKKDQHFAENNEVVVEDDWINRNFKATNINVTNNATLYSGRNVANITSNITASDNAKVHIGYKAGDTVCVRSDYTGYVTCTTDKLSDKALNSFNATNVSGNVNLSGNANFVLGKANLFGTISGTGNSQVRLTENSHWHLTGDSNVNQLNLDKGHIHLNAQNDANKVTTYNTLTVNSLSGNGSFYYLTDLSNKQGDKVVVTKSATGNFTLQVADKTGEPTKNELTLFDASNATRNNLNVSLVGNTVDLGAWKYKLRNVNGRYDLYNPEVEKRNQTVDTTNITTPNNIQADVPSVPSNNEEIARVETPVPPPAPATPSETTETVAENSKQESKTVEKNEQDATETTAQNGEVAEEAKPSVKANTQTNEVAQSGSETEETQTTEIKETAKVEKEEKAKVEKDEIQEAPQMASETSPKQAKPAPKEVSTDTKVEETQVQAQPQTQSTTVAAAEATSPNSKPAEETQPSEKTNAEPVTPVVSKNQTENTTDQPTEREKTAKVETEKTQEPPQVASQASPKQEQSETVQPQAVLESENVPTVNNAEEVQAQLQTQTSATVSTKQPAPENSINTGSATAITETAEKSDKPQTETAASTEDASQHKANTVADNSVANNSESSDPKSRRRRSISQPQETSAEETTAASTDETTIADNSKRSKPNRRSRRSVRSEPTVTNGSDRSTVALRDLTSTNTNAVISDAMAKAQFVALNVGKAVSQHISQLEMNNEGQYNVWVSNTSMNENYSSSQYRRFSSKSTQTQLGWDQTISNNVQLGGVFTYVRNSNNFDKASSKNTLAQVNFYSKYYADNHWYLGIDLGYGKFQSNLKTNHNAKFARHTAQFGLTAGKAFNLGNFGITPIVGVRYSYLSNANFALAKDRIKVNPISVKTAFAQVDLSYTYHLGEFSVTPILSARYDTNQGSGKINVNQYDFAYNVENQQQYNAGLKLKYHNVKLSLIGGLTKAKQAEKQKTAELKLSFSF
Description: The Rd strain was grown in brain heart-infusion broth supplemented with hemin (10 μg/ml) and nicotinamide adenine dinucleotide (2 μg/ml) to mid-log phase, and then harvested by centrifugation.
All samples were collected in sterile beakers; within 6 hours of collection they were centrifuged at 10,000×g for 20 min at 4 C to remove lipids and cells. The resulting whey was stored at −70 C and was prepared for use by thawing slowly, without further modifications. 2×10^9 H. influenzae cells were resuspended in 1 ml of the unmodified human milk whey and incubated at 37 C with gentle mixing. Samples were removed at intervals between 2 minutes and 1 hour. Whole cells and supernatants were examined by Western immunoblot using antisera directed against all domains of the preprotein.
Mid-log phase Rd3-13 bacteria were incubated in milk whey, and aliquots were removed at the times shown.
The antiserum used was anti-Rd3-13, which reacts with IgAp, IgAa, and IgAb.

[7] = cited from earlier work

Molecule | proteolysis of Hap ([1]; lowest concentration (87 nM), treatment of cells for 1 hour) | effect on Hap preprotein ([2]; DB117 expressing HapS243A, 13 μM, whole cells) | effect on Hap [3] | cleavage site in IgA1 protease peptides [4] | cleavage site in Hap peptide [5] | removal of IgA protease precursor ([6]; Rd3-13, 30 min. incubation, bacterial cell pellet) | removal of IgA protease precursor ([6]; Rd3-13, after 15 minutes) | Hap degradation products ([1]; DB117 derivatives, 13 μM) | proteolysis of Hap ([2]; DB117/HapS243A, 430 nM) | shelf life ([7]; original sealed packaging, stored below 20° C., max 75% relative humidity) | Iron binding: spectrophotometric method at 465 nm (on solids) ([7]; typical analysis) [%] | pH (2%, 20° C.) ([7]; typical analysis) | removal of IgA protease precursor ([6]; Rd3-13, after two hours)
B1 | proteolysis detectable but incomplete | loss of the Hap preprotein and generation of a Hap C-terminal fragment | resulted in proteolysis, rather than extraction of Hap | cleavage between Arg1382 and Arg1383 and between Arg1383 and Ser1384 | cleavage between Arg1019 and Arg1020 and between Arg1020 and Ala1021 | small amount of precursor protein remaining | a large amount of precursor has been proteolytically removed | – | – | – | – | – | –
B2 | – | – | – | – | – | – | – | generated two products | partial proteolysis of Hap | – | – | – | –
B3 | – | – | – | – | – | – | virtually no precursor was removed | – | – | at least three years | 76 | 5.7 | only a trace of the precursor was removed
